In one assay the test system is HUVEC. As to the kind of experiment: Tube formation assay with HUVEC in collagen gel. Type of assay: cell-based, human. The settings on record: collagen I gel; E3 active even at 10 ng/ml (tested 1 ng/ml to 10 μg/ml); E3b-IgG1 tested 1 pg/ml to 10 ng/ml. The protocol: Human Umbilical vein endothelial cells (HUVEC) were obtained by treating fresh human umbilical cord veins with Trypsin-EDTA (1×) (Gibco/Invitrogen) for 20-25 minutes at 37° C. The cells were cultured in a T-25 flask coated with attachment factor (AF), (Cascade Biologics) in RPMI 1640 medium supplemented with 10% FCS, 0.4% BBE, 1% 1-glutamin, 1% penicillin/streptomycin. Primary cultures were detached with warm Trypsin-EDTA and used when confluent at the second or third passage. The cells were maintained in a proliferative state by culturing them in a split ratio 1:2 at an approximate density of the monolayer of about 60-80%. […]
After 2 passages HUVECs were seeded in their culture medium (40.10^3/50 μl/well of a 96-well plate) on a collagen gel (50 μl of collagen I 1.5 mg/ml) prepared by mixing 7.5 volumes of 2 mg/ml collagen (Collagen R; Serva, Heidelberg, Germany), 1 volume of 10×MEM, 1.5 volume of NaHCO3 (15.6 mg/ml) and ˜1 volume of NaOH to adjust the pH to 7.4. […] The total length of the tube network on the culture surface was quantified at ×40 magnification by the METAVUE™ Software (Universal Imaging Corporation). Results from triplicate wells were expressed as mean vessel area per field ±SEM (relative units). […]
Germlined E3 and its parental antibody were evaluated in the tube formation assay in a collagen type-I matrix. […]

The next assay concerns the target Tie1 (Homo sapiens, UniProt P35590). Nature of the assay: Confocal microscopy staining of HUVEC. Type of assay: binding. Also on record: endogenous in cells; host or cells: HUVEC. The conditions noted are these: biotinylated antibody 10 μg/ml, fixed cells. The method, then:
We analyzed the staining pattern of E3 in HUVECS using confocal microscopy. HUVEC were trypsinised, washed with PBS and spotted at a density of 60 000 cells on a gelatine coated microscope slide and incubated for 24 hours in a humidified incubator at 37° C. Cells were air dried and fixed with 4% paraformaldehyde for 20 minutes at room temperature. The slides were washed with PBS. The slides were incubated with 10% Heat inactivated human serum (incubation buffer).
For measuring specific binding to Tie-1, biotinylated antibody E3 and biotinylated negative control antibody A2 were used at a concentration of 10 μg/ml and incubated for 1 hour at room temperature. Slides were washed twice with PBS. Then, Strepatvidin-R-phycoerythrin (Dako, Glostrup, Denmark) was added and incubated for 1 hour at room temperature. After the last incubation and washing detection of bound antibodies was performed by means of confocal microscopy.

Here are results for 1 molecule from US7871610B2, “Antibodies to Tie1 ectodomain” (Dyax Corp., priority 2003, dated 2011).

Tie1, sequence (P35590 22-1138): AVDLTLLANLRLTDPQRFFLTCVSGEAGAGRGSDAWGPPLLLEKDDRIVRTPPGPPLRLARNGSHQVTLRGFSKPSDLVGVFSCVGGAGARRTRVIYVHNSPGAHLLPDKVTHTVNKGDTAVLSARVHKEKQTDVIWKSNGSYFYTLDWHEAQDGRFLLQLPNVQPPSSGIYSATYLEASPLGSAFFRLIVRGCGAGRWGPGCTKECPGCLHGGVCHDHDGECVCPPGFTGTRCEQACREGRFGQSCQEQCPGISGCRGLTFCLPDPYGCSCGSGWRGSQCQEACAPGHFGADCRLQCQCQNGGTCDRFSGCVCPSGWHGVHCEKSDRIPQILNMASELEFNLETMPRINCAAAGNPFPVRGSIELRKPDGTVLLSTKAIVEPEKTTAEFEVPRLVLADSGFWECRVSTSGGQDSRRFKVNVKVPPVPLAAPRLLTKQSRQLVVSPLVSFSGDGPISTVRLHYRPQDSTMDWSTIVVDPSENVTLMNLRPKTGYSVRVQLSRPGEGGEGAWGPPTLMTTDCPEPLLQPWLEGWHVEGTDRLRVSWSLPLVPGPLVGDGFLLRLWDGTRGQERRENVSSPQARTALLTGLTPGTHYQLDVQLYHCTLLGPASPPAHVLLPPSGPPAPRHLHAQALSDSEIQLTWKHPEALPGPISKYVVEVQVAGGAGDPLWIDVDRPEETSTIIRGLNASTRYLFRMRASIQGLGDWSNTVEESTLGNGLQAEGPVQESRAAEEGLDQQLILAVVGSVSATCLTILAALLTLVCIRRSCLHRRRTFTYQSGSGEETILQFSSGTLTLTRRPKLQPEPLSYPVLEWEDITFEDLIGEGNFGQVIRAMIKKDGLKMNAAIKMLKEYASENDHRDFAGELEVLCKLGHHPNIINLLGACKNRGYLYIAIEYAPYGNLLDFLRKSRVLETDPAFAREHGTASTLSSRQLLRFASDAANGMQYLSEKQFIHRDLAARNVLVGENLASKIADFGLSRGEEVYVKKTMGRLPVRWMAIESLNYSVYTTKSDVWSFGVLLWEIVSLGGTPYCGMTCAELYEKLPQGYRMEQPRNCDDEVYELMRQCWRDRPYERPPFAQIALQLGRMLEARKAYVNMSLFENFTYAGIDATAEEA

B1: E3: human anti-Tie1 antibody from Fab phage library; HC SEQ ID NO:114, LC SEQ ID NO:116 (antibody, V domains shown)
VH: EVQLLESGGGLVQPGGSLRLSCAASGFTFSMYGMVWVRQAPGKGLEWVSVISPSGGNTGYADSVKGRFTISRDNSKNTLYLQVNSLRAEDTAVYYCARAPRGYSYGYYYWGQGTLVTVSSASTKGPSVFPLAPSSKSTSGG
VL: DIQMTQSPLSLSASVGDRVTITCRASQGIGHYLAWYQQKPGKVPKLLIYTASTLQSGVPSRFSGSGSGTDFTLTINSLQPEDVATYYCQQFNSYPHTFGQGTRLDIK
modifications: Synthetically generated peptide
On to B1, for which, in the assay on HUVEC, the “tube formation by HUVECs” value is “potent inhibitor of tube formation”. Further, in the assay with Tie1, the “binding to HUVEC by confocal microscopy” value is “binds specifically to HUVEC” and the “localisation of staining in HUVEC” value is given as “pre-dominantly located inside of the cell”.
